Test [1] has as its target Arg838(g- r+):Arg838(g+ r-) RetGC1 dimer (human) (UniProt Q02846).
For test [2], the target named is Ser838(g- r+):Arg838(g+ r-) RetGC1 heterodimer (human) (UniProt Q02846).
Test [3] concerns the target Ser838(g- r+):Ser838(g+ r-) RetGC1 dimer (human) (UniProt Q02846).
Test [4] deals with R838S mOrange-RetGC1 (human) (UniProt Q02846). The test can be described thus: co-localisation of fluorescent fusions in living cells (confocal microscopy, PCC); mOrange-RetGC1 co-expressed with GCAP1-GFP or RD3-GFP in HEK293 cells (GFP plasmid to RetGC1 plasmid ~1/100 molar ratio); confocal images 24-30 h after transfection; PCC of whole-cell images; the GFP proteins are diffuse without RetGC1 and go to the membrane cyclase when they bind; PCC < 0.6 indicates lack of co-localization.

Test [5] addresses mOrange-tagged R666W RetGC1 (human) (UniProt Q02846). The test is described as above.
Test [6] concerns the target mOrange-tagged WT human RetGC1 (human) (UniProt Q02846). The description is as above.
Test [7] concerns the target WT human RetGC1 (human) (UniProt Q02846).
In test [8] the target is R838S mOrange-RetGC1 (human) (UniProt Q02846). The test can be described thus: co-localisation of fluorescent fusions in living cells (confocal microscopy, PCC); mOrange-RetGC1 co-expressed with GCAP1-GFP or RD3-GFP in HEK293 cells (GFP plasmid to RetGC1 plasmid ~1/100 molar ratio); confocal images 24-30 h after transfection; PCC of whole-cell images; the GFP proteins are diffuse without RetGC1 and go to the membrane cyclase when they bind; PCC < 0.6 indicates lack of co-localization. This is another data set of the same source.

Test [9] has as its target mOrange-tagged G982VfsX39 RetGC1 (human) (UniProt Q02846). Described as above.
Test [10] has as its target mOrange-tagged L911F RetGC1 (human) (UniProt Q02846). The description is as above.
For test [11], the target named is mOrange-tagged R666W RetGC1 (human) (UniProt Q02846). Described as above. This is another data set of the same source.
Test [12] deals with mOrange-tagged R761W RetGC1 (human) (UniProt Q02846). The test is described as above.
For test [13], the target named is mOrange-tagged WT human RetGC1 (human) (UniProt Q02846). Described as above. This is another data set of the same source.
Test [14] concerns the target R666W RetGC1 (human) (UniProt Q02846).
Test [15] has as its target WT human RetGC1 (human) (UniProt Q02846). This is another data set of the same source.

Like-named read-outs stand apart in the source and are kept apart here.

With “Recombinant human RD3 (from UniProt Q7Z3Z2 1-195) (natural protein)”, the [RD3]1/2: RD3 concentration causing 50% inhibition of RetGC1 activity preactivated by 1.5 μM GCAP1 in 10 mM Mg2+ and 2 mM EGTA; pair acted on: GCAP1 with the cyclase dimer in [1] is 2.3 nM; in test [2], 42 nM; in test [3], 23 nM.

“RD3-GFP (from UniProt Q7Z3Z2 1-195) (natural protein)”: the PCC (Pearson's correlation coefficient of co-localization) was determined as 0.91 in test [4], 0.9 in test [5] and 0.91 in [6].

B1: Human GCAP2, N-myristoylated (natural protein)
chain: MGQEFSWEEAEAAGEIDVAELQEWYKKFVMECPSGTLFMHEFKRFFKVTDDEEASQYVEGMFRAFDKNGDNTIDFLEYVAALNLVLRGTLEHKLKWTFKIYDKDGNGCIDRLELLNIVEGIYQLKKACRRELQTEQGQLLTPEEVVDRIFLLVDENGDGQLSLNEFVEGARRDKWVMKMLQMDMNPSSWLAQQRRKSAMF
modifications: N-myristoylated
Take B1: the [GCAP]1/2: half-saturating concentration of Mg2+ GCAP2 for activation of guanylyl cyclase activity in HEK293 membranes (10 mM Mg2+, 2 mM EGTA) in test [7] worked out at 19 µM.

B2: GCAP1-GFP (natural protein)
chain: MGNIMDGKSVEELSSTECHQWYKKFMTECPSGQLTLYEFRQFFGLKNLSPWASQYVEQMFETFDFNKDGYIDFMEYVAALSLVLKGKVEQKLRWYFKLYDVDGNGCIDRDELLTIIRAIRAINPCSDSTMTAEEFTDTVFSKIDVNGDGELSLEEFMEGVQKDQMLLDTLTRSLDLTRIVRRLQNGEQDEEGASGRETEAAEADG
For B2, the PCC (Pearson's correlation coefficient of co-localization) came to 0.89 in test [8]; 0.87 in test [9]; 0.89 in test [10]; 0.64 in test [11]; 0.64 in test [12]; 0.9 in test [13].

B3: Human GCAP3, N-myristoylated (natural protein)
chain: MGNGKSIAGDQKAVPTQETHVWYRTFMMEYPSGLQTLHEFKTLLGLQGLNQKANKHIDQVYNTFDTNKDGFVDFLEFIAAVNLIMQEKMEQKLKWYFKLYDADGNGSIDKNELLDMFMAVQALNGQQTLSPEEFINLVFHKIDINNDGELTLEEFINGMAKDQDLLEIVYKSFDFSNVLRVICNGKQPDMETDSSKSPDKAGLGKVKMK
modifications: N-myristoylated
In [7], B3 showed a [GCAP]1/2: half-saturating concentration of Mg2+ GCAP3 for activation of guanylyl cyclase activity in HEK293 membranes (10 mM Mg2+, 2 mM EGTA) of 5.3 µM.

B4: Human GCAP1 (E6S), N-myristoylated (natural protein)
chain: MGNVMSGKSVEELSSTECHQWYKKFMTECPSGQLTLYEFRQFFGLKNLSPSASQYVEQMFETFDFNKDGYIDFMEYVAALSLVLKGKVEQKLRWYFKLYDVDGNGCIDRDELLTIIQAIRAINPCSDTTMTAEEFTDTVFSKIDVNGDGELSLEEFIEGVQKDQMLLDTLTRSLDLTRIVRRLQNGEQDEEGADEAAEAAG
modifications: N-myristoylated
The molecule B4 gave a [GCAP]1/2: half-saturating concentration of Mg2+ GCAP1 for activation of guanylyl cyclase activity in HEK293 membranes (10 mM Mg2+, 2 mM EGTA) in [7] of 1.13 µM. In test [14], this molecule displayed a [GCAP1]1/2: half-saturating concentration of Mg2+ GCAP1 for activation of guanylyl cyclase activity in HEK293 membranes (10 mM Mg2+, 2 mM EGTA) of 7.25 µM. The [GCAP]1/2: half-saturating concentration of GCAP1 for RetGC1 activation in 10 mM Mg2+ and 2 mM EGTA (Fig. 10C) in [1] is 1.65 µM; in test [2], 0.22 µM; in test [3], 0.4 µM; in [15], 1.1 µM.

The values above are taken from PMC7939455.
